Measurements published in patent US20260226095A1.

Key:
[1] = biological target: human recombinant TNFα (human) (UniProt P01375); assay: ELISA on human recombinant TNFα, anti-His tag and HRP anti-mouse IgG
[2] = biological target: human recombinant TNFα (human) (UniProt P01375); assay: SPR, Biacore T200, standard kinetics, antigen immobilized on CM5 chip

Chain of human recombinant TNFα (human) (P01375 77-233 limits assumed): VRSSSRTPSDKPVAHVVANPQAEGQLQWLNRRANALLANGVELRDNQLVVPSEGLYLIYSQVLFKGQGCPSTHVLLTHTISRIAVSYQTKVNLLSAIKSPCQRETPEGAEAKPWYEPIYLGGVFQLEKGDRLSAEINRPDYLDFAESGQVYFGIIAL

EC50 (read off the curve) [1] [µg/mL] | Kd [2] [nM] | RUmax [2] [RU] | Substance
0.09 | 4.3 | 12 | scFv Ab3 (Adalimumab) of synthesis
 | 9.3 |  | scFv Ab3 RREF
